Reference: paper PMC4134560

Target: BCL-xLΔC (BCL-xL construct lacking 22 C-terminal residues), Q07817
Sequence (Q07817 1-211, stated change not applied): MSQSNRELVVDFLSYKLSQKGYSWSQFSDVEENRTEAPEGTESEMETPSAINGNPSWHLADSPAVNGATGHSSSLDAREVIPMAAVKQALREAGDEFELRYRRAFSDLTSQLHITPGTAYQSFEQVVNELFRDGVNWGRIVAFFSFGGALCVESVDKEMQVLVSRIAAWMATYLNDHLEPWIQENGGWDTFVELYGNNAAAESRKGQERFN

Binder: STKKLSECLKRIGDELDSNM (modifications not checked) [BAX BH3 domain peptide]
- Kd: 500 nM
